The values below come from publication PMC6424611 (Journal of molecular biology, 2019).

Where no end group is shown, it is not given here. [ ]: non-standard residue; d: D form. The star is where a group is joined. Biotin = O=C1N[C@H]2[C@H](CS[C@H]2CCCCC(=O)*)N1; TTDS = NCCCOCCOCCOCCCNC(=O)CCC(=O)*; pS = N[C@@H](COP(=O)(O)O)C(=O)O

To fix the notation:
T1: MBP-fused PDZ domain of MAST2 (human, UniProt Q6P0Q8 1104-1192)
T1 sequence (looked up): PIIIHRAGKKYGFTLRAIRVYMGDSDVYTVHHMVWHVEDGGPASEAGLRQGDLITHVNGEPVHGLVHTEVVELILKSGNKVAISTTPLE

T2: MBP-fused PDZ domain 3 of PDZD7 (human, UniProt Q9H5P4 862-934)
T2 sequence (looked up): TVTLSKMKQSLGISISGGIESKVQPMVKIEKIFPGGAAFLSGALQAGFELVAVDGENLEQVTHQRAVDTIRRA

T3: MBP-fused PDZ domain of MAST1 (human, UniProt Q9Y2H9 967-1055)
T3 sequence (looked up): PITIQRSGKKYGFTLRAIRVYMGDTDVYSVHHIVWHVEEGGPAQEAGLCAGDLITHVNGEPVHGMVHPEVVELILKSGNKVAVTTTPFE

T4: MBP-fused PDZ domain of SNTG2 (human, UniProt Q9NY99 73-156)
T4 sequence (looked up): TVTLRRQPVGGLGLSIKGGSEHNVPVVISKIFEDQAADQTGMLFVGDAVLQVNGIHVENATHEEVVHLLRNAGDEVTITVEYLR

T5: MBP-fused PDZ domain of SNTB1 (human, UniProt Q13884 112-195)
T5 sequence (looked up): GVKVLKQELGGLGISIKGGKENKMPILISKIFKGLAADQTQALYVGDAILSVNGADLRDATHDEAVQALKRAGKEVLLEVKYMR

B1: MBP-fused PDZ domain 1 of PARD3B (domain or fragment, human, UniProt Q8TEW8 201-289, looked up)
chain: TRTVEISGEGGPLGIHVVPFFSSLSGRILGLFIRGIEDNSRSKREGLFHENECIVKINNVDLVDKTFAQAQDVFRQAMKSPSVLLHVLP
B2: RSK1 683-735 peptide, phosphorylated (peptide, UniProt Q15418 683-735, looked up)
peptide: QSQLSHQDLQLVKGAMAATYSALNSSKPTPQLKPIESSILAQRRVRKLPSTTL
modifications: also: monophosphorylated, site not given here
B3: biotinylated RSK1 725-735 peptide, phosphorylated at Ser732 (position -3) (peptide, UniProt Q15418 725-735, looked up)
peptide: {Biotin-TTDS}-RRVRKLP[pS]TTL
B4: PDZ domain 2 of MAGI3 (domain or fragment, human, UniProt Q5TCQ9 410-492, looked up)
chain: RASLKKSTMGFGFTIIGGDRPDEFLQVKNVLKDGPAAQDGKIAPGDVIVDINGNCVLGHTHADVVQMFQLVPVNQYVNLTLCR
B5: biotinylated RSK1 725-735 peptide, unphosphorylated (peptide, UniProt Q15418 725-735, looked up)
peptide: {Biotin-TTDS}-RRVRKLPSTTL
B6: MBP-fused PDZ domain 1 of PDZRN4 (domain or fragment, human, UniProt Q6ZMN7 224-314, looked up)
chain: TIVLERENDTLGFNIIGGRPNQNNQEGTSTEGIYVSKILENGPADRADGLEIHDKIMEVNGKDLSKATHEEAVEAFRNAKEPIVVQVLRRT

Assay [1] deals with B5. The assay can be described thus: holdup assay.
For assay [2], the target named is B3. The assay can be described thus: holdup assay.
For assay [3], the target named is T1, MBP-fused PDZ domain of MAST2. The assay can be described thus: fluorescence polarisation.
Assay [4] concerns the target T2, MBP-fused PDZ domain 3 of PDZD7. The assay can be described thus: fluorescence polarisation.
Assay [5] deals with T3, MBP-fused PDZ domain of MAST1. The experiment in a line: fluorescence polarisation.
For assay [6], the target named is B1. The experiment in a line: fluorescence polarisation.
The target in assay [7] is MBP-fused PDZ domain of HTRA1 (human, UniProt Q92743 365-467). The experiment in a line: fluorescence polarisation.
MBP-fused PDZ domain of HTRA1, sequence (Q92743 365-467): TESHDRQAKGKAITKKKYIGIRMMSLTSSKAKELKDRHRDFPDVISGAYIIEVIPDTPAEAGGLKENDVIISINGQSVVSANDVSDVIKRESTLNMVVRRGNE
Assay [8] has as its target T4, MBP-fused PDZ domain of SNTG2. The assay can be described thus: fluorescence polarisation.
Assay [9] deals with T5, MBP-fused PDZ domain of SNTB1. The experiment in a line: fluorescence polarisation.
In assay [10] the target is MBP-fused PDZ domain of SNX27 (human, UniProt Q96L92 43-136). The experiment in a line: fluorescence polarisation.
Assay [11] has as its target MBP-fused PDZ domain 2 of GRID2IP (human, UniProt A4D2P6 279-356). The assay can be described thus: fluorescence polarisation.
In assay [12] the target is B1. The experiment in a line: SPR.
Assay [13] deals with B6. The experiment in a line: SPR.
The target in assay [14] is B1. The assay can be described thus: holdup assay.
Assay [15] concerns the target B4. The assay can be described thus: holdup assay.
Assay [16] has as its target B6. The experiment in a line: holdup assay.

MBP-fused PDZ domain 2 of GRID2IP, sequence (A4D2P6 279-356): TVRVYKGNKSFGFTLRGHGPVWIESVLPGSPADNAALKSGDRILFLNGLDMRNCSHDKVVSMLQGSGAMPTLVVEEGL

For B1, the BI came to 0.52 ± 0.05 in assay [1] and 0.31 ± 0.02 in [2].

In the case of B2, the Kd in assay [3] stood at 48 ± 84 µM; in assay [4] it was 46 ± 7 µM; in assay [5], 92 ± 12 µM; in assay [6] it was 31 ± 3.5 µM; in assay [7], 33 ± 2 µM; in [8] it was 4.8 ± 1.7 µM. Further, the Kd in assay [9] was determined as 4.5 ± 0.3 µM; in assay [10], 32 ± 5 µM; in assay [11] it was 85 ± 11 µM.

As to B3, the Kd in [12] amounted to 6.1 ± 0.4 µM; in [13], 7.1 ± 0.9 µM; in assay [14], 35.1 µM; in assay [15], 40.8 µM; in [16], 12.6 µM.

Turning to B4, the BI was 0.28 ± 0.03 in assay [1] and 0.28 ± 0.06 in assay [2].

On to B5, for which the Kd in [12] was found to be 4 ± 0.3 µM; in assay [13] it was 0.97 ± 0.18 µM; in assay [14], 13.8 µM; in assay [15] it was 40.8 µM; in assay [16], 14.4 µM.

In the case of B6, the BI in assay [1] turned out to be 0.51 ± 0.02; in [2], 0.54 ± 0.03.
